The text below walks through data of patent US4851572A, “γ-L-glutamyl-4-nitroanilide derivatives and process for determining γ-GTP activity using the same” (Wako Pure Chemical Industries, Ltd., priority 1987, dated 1989).

The subject of the data set is T1, N[C@@H](CCC(=O)Nc1ccc([N+](=O)[O-])c(CO)c1)C(=O)O.
T1 construct: As samples, there were used human serum; from tissue; host or cells: human serum
As to the kind of experiment: Km value, γ-GTP from human serum. The settings on record: other: human serum γ-GTP. It counts as biochemical. An excerpt: In Table 3 are shown the results of measuring, by a conventional method, Km values of γ-L-glutamyl-3-hydroxymethyl-4-nitroanilide, which is a compound of this invention, for each of γ-GTPs derived from human serum, porcine kidney and bovine kidney.
In Table 3 are also shown, for reference, Km values of γ-L-glutamyl-3-carboxy-4-nitroanilide and γ-L-glutamyl-p-nitroanilide reported by Leslie M. Shaw (Clinical Chemistry, 23, 79 (1977)).

Sequence of γ-GTP (human serum) (Homo sapiens) (chain, as listed by the source): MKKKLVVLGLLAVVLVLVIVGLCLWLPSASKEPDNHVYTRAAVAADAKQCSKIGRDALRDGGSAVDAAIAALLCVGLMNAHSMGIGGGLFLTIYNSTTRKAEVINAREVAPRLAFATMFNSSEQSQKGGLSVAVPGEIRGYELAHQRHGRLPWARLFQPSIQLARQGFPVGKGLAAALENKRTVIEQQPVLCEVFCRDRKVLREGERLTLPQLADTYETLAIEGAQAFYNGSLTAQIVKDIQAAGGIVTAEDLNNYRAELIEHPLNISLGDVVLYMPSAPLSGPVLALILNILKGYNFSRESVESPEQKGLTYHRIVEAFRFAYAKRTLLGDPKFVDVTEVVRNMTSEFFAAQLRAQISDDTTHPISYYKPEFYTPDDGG
Sequence of γ-GTP (human serum) (Homo sapiens) (chain, as listed by the source): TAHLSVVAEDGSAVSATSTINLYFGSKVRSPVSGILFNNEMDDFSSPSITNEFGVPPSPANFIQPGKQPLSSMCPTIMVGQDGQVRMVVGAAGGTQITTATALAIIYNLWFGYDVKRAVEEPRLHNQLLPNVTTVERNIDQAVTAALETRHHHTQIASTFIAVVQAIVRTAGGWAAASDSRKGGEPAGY

As to γ-GTP (human serum) (Homo sapiens), the Km – broadly, the concentration of substrate that gives half-maximal velocity – was 940 µM.
